These results are taken from US20250179210A1, “ANTI-CEACAM5 ANTIBODIES AND CONJUGATES AND USES THEREOF” (Merck Patent GmbH, priority 2022, published 2025).

The target in experiment [1] is T1, CEACAM5 in cancer cell line lysates (Homo sapiens, UniProt P06731).
T1 construct: endogenous in cells; host or cells: CEACAM5-positive and -negative cancer cell lines (RIPA lysates)
T1 sequence (P06731 35-685): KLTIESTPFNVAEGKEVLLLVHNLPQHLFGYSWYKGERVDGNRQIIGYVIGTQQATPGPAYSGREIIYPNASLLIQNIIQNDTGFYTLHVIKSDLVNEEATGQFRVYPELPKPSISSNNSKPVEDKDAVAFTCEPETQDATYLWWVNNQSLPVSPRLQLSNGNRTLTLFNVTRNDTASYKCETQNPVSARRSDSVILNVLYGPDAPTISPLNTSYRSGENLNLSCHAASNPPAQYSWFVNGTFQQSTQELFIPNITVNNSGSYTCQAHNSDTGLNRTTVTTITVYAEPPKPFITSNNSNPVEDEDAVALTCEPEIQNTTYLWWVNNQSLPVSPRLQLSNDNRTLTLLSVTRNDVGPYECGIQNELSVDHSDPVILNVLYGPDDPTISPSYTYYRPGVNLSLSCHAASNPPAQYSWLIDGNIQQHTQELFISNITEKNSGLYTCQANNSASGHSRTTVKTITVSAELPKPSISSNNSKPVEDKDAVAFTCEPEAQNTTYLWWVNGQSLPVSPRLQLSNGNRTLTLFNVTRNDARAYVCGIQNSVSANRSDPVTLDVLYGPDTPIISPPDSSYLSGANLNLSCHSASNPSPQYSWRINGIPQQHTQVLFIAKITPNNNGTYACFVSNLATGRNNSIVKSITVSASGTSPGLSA
Description: Western blot on cancer cell line lysates. Conditions: CEACAM5-positive and -negative cell line lysates. The class given is binding. How it is done: Method used: Western blots were performed according to standard protocols (Sambrook, J. & Russell, D. W., 2001. Molecular Cloning: A Laboratory Manual, Volume 1, CSHL Press). For SDS-PAGE followed by membrane wet blotting, 15 μg total protein of RIPA cell lysates quantified by BCA kit (Thermo Scientific, #23227) were loaded per lane. Criterion XT 4-12% gels (Bio-Rad, #3450125) using MOPS running buffer (Bio-Rad #1610788) were used in a Criterion electrophoresis cell (Bio-Rad, #1656001). Transfer of proteins was confirmed by Ponceau staining. Membranes were washed before and in-between staining with 0.5 μg/mL to 1 μg/mL primary (mAb1 or rb8G4) and secondary antibodies (anti-human IgG, Jackson ImmunoResearch #109-035-098 or anti-rabbit IgG, CellSignaling #7074) was conducted. Stained membranes were visualized by ECL detection reagent using a Fusion FX imaging system (Vilber).
In general terms: Immunoblotting shows a protein as a band on a membrane.

The next experiment has as its system MDA-MB-468. Put plainly: Flow cytometry binding to cell lines. Set-up: species or system human. Conditions: 10 μg/mL primary antibody. Here is the method: (§1) Method used: 5E5 to 1E6 cells were used for flow cytometry analyses using a BD FACSCanto II (BD Biosciences) in 5 mL polystyrene tubes. Staining with 10 μg/mL primary antibodies (mAb1, rb8G4, mouse monoclonal Agilent Dako #M7072 clone #IL7) and respective fluorescently labeled secondary antibodies (donkey anti-human IgG Jackson-Dianova #709-116-149; donkey anti-mouse IgG Jackson ImmunoResearch #715-116-150, donkey anti-rabbit IgG Jackson-Dianova #711-116-152) were conducted in 50 μL 1% PBS/BSA for 20 to 30 min at 4° C. Between and after staining steps, cells were washed thrice with 1% PBS/BSA and resuspended in 500 μL 1% PBS/BSA (including 0.2 μg/mL DAPI for live cell gating) for flow cytometry analyses. For data evaluation, FlowJo software (BD Biosciences) was used.
(Flow cytometry measures light scatter and fluorescence of single cells or particles in a stream.)

In another experiment the test system is MKN-45. Description: Flow cytometry binding to cell lines. More on the design: species or system human. To be noted: 10 μg/mL primary antibody. How it is done:
as §1

For another experiment, the system named is A549. Put plainly: Flow cytometry binding to cell lines. Set-up: species or system human. To be noted: 10 μg/mL primary antibody. Here is the method: as §1
Another experiment concerns NCI-H441. Put plainly: Flow cytometry binding to cell lines. Set-up: species or system human. To be noted: 10 μg/mL primary antibody. How it is done:
as §1

In experiment [2] the target is T2, CEACAM-5 in FFPE cancer cell lines and human tumor tissues (Homo sapiens, UniProt P06731).
T2 construct: formaldehyde fixed paraffin embedded (FFPE) cancer cell line microarrays (CMAs) and human tumor tissues; from tissue; host or cells: FFPE cancer cell line microarrays and human tumor tissues
T2 sequence (P06731 35-676): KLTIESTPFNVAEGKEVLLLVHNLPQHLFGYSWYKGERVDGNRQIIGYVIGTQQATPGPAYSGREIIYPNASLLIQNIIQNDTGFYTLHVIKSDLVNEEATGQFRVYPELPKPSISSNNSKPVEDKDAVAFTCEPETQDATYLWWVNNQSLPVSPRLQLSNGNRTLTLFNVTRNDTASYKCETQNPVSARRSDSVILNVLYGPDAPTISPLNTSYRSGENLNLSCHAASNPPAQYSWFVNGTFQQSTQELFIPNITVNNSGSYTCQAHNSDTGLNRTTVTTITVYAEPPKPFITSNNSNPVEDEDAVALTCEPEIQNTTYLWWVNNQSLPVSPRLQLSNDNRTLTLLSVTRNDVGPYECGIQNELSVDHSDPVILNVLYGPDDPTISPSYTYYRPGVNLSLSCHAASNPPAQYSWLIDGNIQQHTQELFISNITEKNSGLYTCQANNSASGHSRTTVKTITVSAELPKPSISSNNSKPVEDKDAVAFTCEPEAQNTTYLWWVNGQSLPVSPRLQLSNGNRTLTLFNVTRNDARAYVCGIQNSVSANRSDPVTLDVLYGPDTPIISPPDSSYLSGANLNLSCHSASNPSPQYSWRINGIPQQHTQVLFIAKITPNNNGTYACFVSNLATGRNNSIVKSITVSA
Description: Immunohistochemistry on FFPE cell lines and human tissues. How it is done:
For the IHC staining with the anti-CEACAM-5 antibody rb8G4, sections of 4 μm from formaldehyde fixed paraffin embedded (FFPE) cancer cell line microarrays (CMAs) and human tumor tissues were mounted on charged slides (SuperFrost Ultra Plus, Thermo Fisher Scientific or TOMO, Matsunami). The staining procedure was performed using a Discovery XT (Roche Diagnostics) staining platform. Following deparaffinization, the sections were heated for epitope retrieval in Tris-EDTA buffer pH 8 (CC1, Roche Diagnostics). The sections were incubated with the primary monoclonal antibody rb8G4 diluted to 0.5 or 0.7 μg/ml in phosphate-buffered saline (PBS) or antibody diluent buffer (DCS). The clone DA1E (rabbit monoclonal IgG, NEB) served as isotype control antibody. The primary antibodies were followed by the HQ anti-rabbit IgG detection kit (Roche Diagnostics). […]
CMAs and the TMA with human organ tissue were stained and scanned with the NanoZoomer (Hamamatsu) with a resolution of 0.46 μm/pixel. […] The scans of the CMAs were analyzed with the image analysis software HALO (Indica Labs, USA). For the determination of the amount of antigen present, positive brown stained area was calculated as percent area of the viable tissue area. Staining (arbitrary units) is calculated as […]

Experiment [3] addresses cynomolgus_monkey-CEACAM5. Description: Binding affinity on Octet Red (Fab format). Conditions: biotinylated Macaca fascicularis CEACAM5_ECD-His captured, KD=kd/ka. The text has this: • To determine the binding affinity of soluble antibody analyte to captured target protein CEACAM5 (human or cynomolgus monkey Macaca fascicularis).
(In general: In BLI a coated tip is dipped into the sample, and binding shifts an interference pattern.)

A further experiment concerns the target BSA (Bos taurus, UniProt P02769). Put plainly: Selectivity ELISA, unrelated protein (Fab). In kind it is binding. Conditions: all concentrations tested. The text has this:
(§2) Selectivity determination for Fab of mAb1 to human CEACAM5 and other human CEACAM family members was done in ELISA assay. Proteins were coated on 96-well assay plates: huCEACAM5-His6 (R&D Systems #4128-CM), huCEACAM6-His6 (3934-CM R&D Systems and recombinant protein obtained from Syngene), huCEACAM1-His6 (2244-CM R&D Systems), huCEACAM3-His6 (C449 Novoprotein), huCEACAM7-His6 (C926 Novoprotein), huCEACAM8-His6 (C583 Novoprotein), huPSG1-His6 (CC66 Novoprotein), each protein was coating the plate at 12 nM concentration.

Experiment [4] deals with other human CEACAM family members (huCEACAM6, huCEACAM1, huCEACAM3, huCEACAM7, huCEACAM8, huPSG1). Description: Selectivity ELISA, different CEACAM proteins (Fab). The class given is binding. To be noted: even when using 1000 nM Fab.
Excerpt: as §2

Usually Kd stands for the constant that tells how readily two partners part at equilibrium. Higher therefore signals lower affinity.

Sequence of cynomolgus_monkey-CEACAM5 (as listed by the source): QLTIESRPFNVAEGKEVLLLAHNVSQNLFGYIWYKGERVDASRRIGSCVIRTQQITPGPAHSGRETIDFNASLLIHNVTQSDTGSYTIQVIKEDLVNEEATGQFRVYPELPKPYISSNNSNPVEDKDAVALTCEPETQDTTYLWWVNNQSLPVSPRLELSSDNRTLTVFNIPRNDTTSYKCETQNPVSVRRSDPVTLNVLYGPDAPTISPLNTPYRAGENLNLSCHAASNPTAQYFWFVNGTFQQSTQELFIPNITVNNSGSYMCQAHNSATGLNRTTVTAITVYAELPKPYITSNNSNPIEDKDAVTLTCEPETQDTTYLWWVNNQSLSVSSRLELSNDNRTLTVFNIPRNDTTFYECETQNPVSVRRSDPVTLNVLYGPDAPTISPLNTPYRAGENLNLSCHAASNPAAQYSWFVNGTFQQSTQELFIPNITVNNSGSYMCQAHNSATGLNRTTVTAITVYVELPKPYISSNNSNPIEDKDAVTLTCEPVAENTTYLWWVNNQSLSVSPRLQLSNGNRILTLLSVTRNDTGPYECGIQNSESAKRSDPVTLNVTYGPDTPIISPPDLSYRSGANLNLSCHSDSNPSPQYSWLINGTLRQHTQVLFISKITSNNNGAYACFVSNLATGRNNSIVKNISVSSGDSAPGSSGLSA
Sequence of BSA (P02769 25-607): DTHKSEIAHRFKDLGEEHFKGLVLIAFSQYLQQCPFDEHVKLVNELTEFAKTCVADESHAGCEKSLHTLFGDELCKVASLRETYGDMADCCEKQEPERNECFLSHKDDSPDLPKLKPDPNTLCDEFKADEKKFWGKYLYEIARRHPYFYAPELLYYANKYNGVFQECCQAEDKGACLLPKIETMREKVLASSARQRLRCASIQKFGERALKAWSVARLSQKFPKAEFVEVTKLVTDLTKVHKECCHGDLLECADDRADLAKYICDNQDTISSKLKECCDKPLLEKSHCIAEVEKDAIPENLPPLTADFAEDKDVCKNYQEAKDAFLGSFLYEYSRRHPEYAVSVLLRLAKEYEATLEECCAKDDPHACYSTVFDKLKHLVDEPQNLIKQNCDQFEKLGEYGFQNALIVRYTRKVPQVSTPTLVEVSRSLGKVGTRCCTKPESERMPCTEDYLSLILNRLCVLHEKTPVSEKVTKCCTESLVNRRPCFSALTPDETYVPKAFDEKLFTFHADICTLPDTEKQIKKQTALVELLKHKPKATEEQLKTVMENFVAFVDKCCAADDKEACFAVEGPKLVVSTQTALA

B1: rb8G4 (antibody)
heavy: EVQLQESGPGLVKPSQTLSLTCTVSDGSVSRGGYYLTWIRQHPGKGLEWIGYIYYSGSTYFNPSLRSRVTMSVDTSKNQFSLKLSSVTAADTAVYYCARGIAVAPFDYWGQGTLVTVSSQPKAPSVFPLAPCCGDTPSSTVTLGCLVKGYLPEPVTVTWNSGTLTNGVRTFPSVRQSSGLYSLSSVVSVTSSSQPVTCNVAHPATNTKVDKTVAPSTCSKPTCPPPELLGGPSVFIFPPKPKDTLMISRTPEVTCVVVDVSEDDPEVQFTWYINNEQVRTARPPLREQQFNSTIRVVSTLPIAHEDWLRGKEFKCKVHNKALPAPIEKTISKARGQPLEPKVYTMGPPREELSSRSVSLTCMINGFYPSDISVEWEKNGKAEDNYKTTPAVLDSDGSYFLYSKLSVPTSEWQRGDVFTCSVMHEALHNHYTQKSISRSPGK
light: EIVLTQSPATLSVSPGERATLSCRTSQSVRSNLAWYQQKPGQAPRLLIYAASTRATGIPARFSGSGSGTEFTLTISSLQSEDFAVYYCQQYTNWPFTFGPGTKVDIKRDPVAPSVLLFPPSKEELTTGTATIVCVANKFYPSDITVTWKVDGTTQQSGIENSKTPQSPEDNTYSLSSTLSLTSAQYNSHSVYTCEVVQGSASPIVQSFNRGDC
On to B1, for which the “CEACAM5 detection in Western blot” value in [1] is on record as “specific to CEACAM5-positive cell lines”. Besides, the “Quotient of MFI of antibody divided by MFI of secondary antibody only control” value with MDA-MB-468 amounted to 1.0; in the experiment with MKN-45, 36.2; with A549, 1.1; in the experiment with NCI-H441 it was 3.2. Besides, the “Pearson correlation coefficient r of IHC staining signal with CEACAM5 mRNA expression” value in [2] (104 cancer cell lines, CCLE dataset) turned out to be 0.88. In experiment [2] (colorectal, gastric, esophageal and non-small cell lung cancer), the “IHC staining of human tumor tissue” value is given as “stained positive”.

B2: Fab of mAb1: Fab format of antibody mAb1 (antibody, V domains shown)
VH: EVQLQESGPGLVKPSQTLSLTCTVSDGSVSRGGYYLTWIRQHPGKGLEWIGYIYYSGSTYFNPSLRSRVTMSVDTSKNQFSLKLSSVTAADTAVYYCARGIAVAPFDYWGQGTLVTVSS
VL: EIVLTQSPATLSVSPGERATLSCRTSQSVRSNLAWYQQKPGQAPRLLIYAASTRATGIPARFSGSGSGTEFTLTISSLQSEDFAVYYCQQYTNWPFTFGPGTKVDIK
As to B2, binding in experiment [3] was characterised by a dissociation constant (Kd) of 14.1 ± 2.53 nM. In the experiment with BSA, the “Binding to unrelated protein (BSA)” value is on record as “did not bind”. Moreover, the “Binding to the other human CEACAM family members” value in experiment [4] is given as “did not bind”.
